Reference: patent publication US20070185311A1 (EPIX MEDICAL INC A DELAWARE, published 2007)
Starred links: 1 amine or outer side, 2 acyl side, 3 side chain; linkers in the order of their positions; H or OH if unused. Positions of bridges follow the written chain, without caps; N, C: chain ends. Non-standard residues stand in square brackets, D forms with d. No end group written: not given here. 4‑methoxycoumarin = 4-Methoxycoumarin, an N-terminal optical probe label; Phe(4-OMe) = COc1ccc(C[C@H](N[*:1])C(=O)[*:2])cc1; Bip = N[C@@H](Cc1ccc(-c2ccccc2)cc1)C(=O)O; Tyr(3-I) = N[C@@H](Cc1ccc(O)c(I)c1)C(=O)O; Hyp = O=C(O)[C@@H]1C[C@@H](O)CN1; Cha = N[C@@H](CC1CCCCC1)C(=O)O; Ahx = NCCCCCC(=O)O; βAla = NCCC(=O)O

Key:
DD(E) fragment of fibrin [1] = test: affinity of optical contrast agent to fibrin DD(E) fragment
DD(E) fragment of fibrin [2] = test: affinity of fluorophore-labelled peptide; target taken as fibrin DD(E) fragment
DD(E) fragment of fibrin [3] = molecular target: T1, DD(E) fragment of fibrin; test: affinity of optical contrast agent to fibrin DD(E) fragment
T1 chain 1: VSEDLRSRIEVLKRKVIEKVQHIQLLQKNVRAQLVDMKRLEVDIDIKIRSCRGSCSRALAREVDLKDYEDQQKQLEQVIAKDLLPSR
T1 chain 2: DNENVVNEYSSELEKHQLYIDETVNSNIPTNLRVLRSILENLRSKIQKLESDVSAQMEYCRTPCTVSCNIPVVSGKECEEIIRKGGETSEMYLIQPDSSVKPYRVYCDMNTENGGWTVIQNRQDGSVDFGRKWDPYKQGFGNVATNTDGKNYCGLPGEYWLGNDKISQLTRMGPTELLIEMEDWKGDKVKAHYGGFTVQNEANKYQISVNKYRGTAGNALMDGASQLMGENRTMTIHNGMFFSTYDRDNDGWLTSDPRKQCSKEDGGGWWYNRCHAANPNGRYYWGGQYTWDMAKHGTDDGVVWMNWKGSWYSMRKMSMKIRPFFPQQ
T1 chain 3: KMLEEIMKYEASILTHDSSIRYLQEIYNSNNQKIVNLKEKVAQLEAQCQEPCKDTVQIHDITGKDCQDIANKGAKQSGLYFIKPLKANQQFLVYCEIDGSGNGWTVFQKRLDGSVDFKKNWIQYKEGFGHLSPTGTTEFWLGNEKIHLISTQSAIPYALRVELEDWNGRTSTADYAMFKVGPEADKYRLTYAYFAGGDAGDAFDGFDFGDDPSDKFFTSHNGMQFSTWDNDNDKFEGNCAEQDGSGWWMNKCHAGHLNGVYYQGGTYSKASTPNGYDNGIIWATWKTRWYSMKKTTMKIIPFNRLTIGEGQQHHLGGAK
T1 chain 4: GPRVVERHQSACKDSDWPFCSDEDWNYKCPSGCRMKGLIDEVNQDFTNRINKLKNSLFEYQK
T1 chain 5: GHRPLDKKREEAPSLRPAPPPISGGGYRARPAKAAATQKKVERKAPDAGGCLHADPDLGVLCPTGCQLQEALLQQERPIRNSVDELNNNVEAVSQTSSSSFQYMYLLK
T1 chain 6: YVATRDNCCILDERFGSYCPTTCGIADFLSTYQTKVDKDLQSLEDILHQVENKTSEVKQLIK

DD(E) fragment of fibrin [4] = molecular target: T1, DD(E) fragment of fibrin; test: affinity to DD(E) fragment of fibrin
DD(E) fragment of fibrin [5] = test: affinity to soluble fibrin DD(E) fragment
DD(E) fragment of fibrin [6] = molecular target: T1, DD(E) fragment of fibrin; test: affinity to DD(E) fragment of fibrin
DD(E) fragment of fibrin [7] = test: affinity of the unlabelled peptide; target taken as fibrin DD(E) fragment
fibrin = test: Fibrin Affinity; method not stated

Molecule “Structure J: Fluor-Q-W-E-C-P-Y-G-L-C-W-I-Q (peptide)” has a Kd (DD(E) fragment of fibrin [1]) of 0.055 µM and a Kd (DD(E) fragment of fibrin [2]) of 0.06 µM.

Molecule fluorescein-[Ahx]GFHC[Hyp][Tyr(3-I)]DLCHI (disulfide 5-10 (inferred)) [Structure C: Fluor-Ahx-G-F-H-C-Hyp-Y(3-I)-D-L-C-H-I] has a Kd (DD(E) fragment of fibrin [3]) of 0.097 µM.

fluorescein-[Ahx]GGFHC[Hyp][Tyr(3-I)]DLCHI (disulfide 6-11 (inferred)) [Structure E: Fluor-Ahx-G-G-F-H-C-Hyp-Y(3-I)-D-L-C-H-I] was tested, and the Kd (DD(E) fragment of fibrin [3]) was 0.09 µM.

fluorescein-[βAla]FHC[Hyp][Tyr(3-I)]DLCHI (disulfide 4-9 (inferred)) [Structure A: Fluor-beta-A-F-H-C-Hyp-Y(3-I)-D-L-C-H-I] showed a Kd (DD(E) fragment of fibrin [1]) of 0.136 µM.

tetramethylrhodamine-QWECPYGLCWIQ (cysteine pairing not given here) [Compound L: tetramethylrhodamine derivative of …] showed a Kd (DD(E) fragment of fibrin [2]) of 2 µM.

Work on [Cha]PCDYYGTC[Bip]D (cysteine pairing not given here) [Cha-P-C-D-Y-Y-G-T-C-Bip-D] yielded a Kd (DD(E) fragment of fibrin [4]) of at most 10 µM.

With fluorescein-WFHCPYDLCHIL (disulfide 4-9 (inferred)) [Structure K: Fluor-W-F-H-C-P-Y-D-L-C-H-I-L] the Kd (DD(E) fragment of fibrin [3]) was 0.06 µM.

Molecule fluorescein-[Ahx]FHC[Hyp][Tyr(3-I)]DLCHI (disulfide 4-9 (inferred)) [Structure B: Fluor-Ahx-F-H-C-Hyp-Y(3-I)-D-L-C-H-I] has a Kd (DD(E) fragment of fibrin [1]) of 0.099 µM.

B1: Compound 32 (peptide)
peptide: LPCDYYGTCXD
modifications: not fully specified; Bip at 10; cyclized with thallium trifluoroacetate; C-terminus as -CO-NHCH2C6H4CH2NH2; Synthon #2 (bb(CO)DTPA chelates, Gd) coupled to the N- and C-terminal amines
Molecule B1 has a Kd (DD(E) fragment of fibrin [5]) of 4.7 µM.

fluorescein-KWFHC[Hyp][Tyr(3-I)]DLCHI (disulfide 5-10 (inferred)) [Structure H: Fluor-K-W-F-H-C-Hyp-Y(3-I)-D-L-C-H-I] showed a Kd (DD(E) fragment of fibrin [3]) of 0.119 µM.

Work on [Phe(4-OMe)]WC[Hyp][Tyr(3-I)]DLCHI (disulfide 3-8 (inferred)) [F(4-OMe)-W-C-Hyp-Y(3-I)-D-L-C-H-I] yielded a Kd (DD(E) fragment of fibrin [6]) of at most 0.5 µM.

For LPCDYYGTCLD (not fully specified; cysteine pairing not given here) [L-P-C-D-Y-Y-G-T-C-L-D], the Kd (DD(E) fragment of fibrin [4]) was at most 10 µM.

fluorescein-[Ahx]WFHC[Hyp][Tyr(3-I)]DLCHI (disulfide 5-10 (inferred)) [Structure D: Fluor-Ahx-W-F-H-C-Hyp-Y(3-I)-D-L-C-H-I] gave a Kd (DD(E) fragment of fibrin [3]) of 0.061 µM.

Molecule {4‑methoxycoumarin}-QWECPYGLCWIQ (cysteine pairing not given here) [Compound N: 4-methoxycoumarin derivative of …] has a Kd (DD(E) fragment of fibrin [2]) of 0.2 µM.

QWECPYGLCWIQ […] gave a Kd (DD(E) fragment of fibrin [7]) of 3 µM and a Ki (fibrin) of 4.7 µM.

fluorescein-KFHC[Hyp][Tyr(3-I)]DLCHI (disulfide 4-9 (inferred)) [Structure F: Fluor-K-F-H-C-Hyp-Y(3-I)-D-L-C-H-I] showed a Kd (DD(E) fragment of fibrin [3]) of 0.212 µM.
